Test results reported in the nanobody polyreactivity screen of Harvey et al. (2022).

Test: yeast display, Sf9 membrane polyspecificity reagent, FACS + sequencing; frameworks hold sequencing errors
How it was run: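 Nanobodies from a synthetic yeast display library (Saccharomyces cerevisiae BJ5465), induced 36–48 hours with galactose, were stained 1 hour at 4 °C with 10% biotinylated, detergent-solubilized Sf9 membrane reagent, enriched on streptavidin microbeads, then FACS-sorted. Anti-HA (expression) and streptavidin (reagent binding) fluorescence set low and high (top ~1%) gates. Polyreactivity labels come from the gate of origin. Genes were colony-PCR amplified, MiSeq 2 × 250 sequenced and filtered by CDR length.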
In the case of “QVHLVESGGGLVQAGGSLRLSCAASGSTFGYYAMGWYRQAPGKEREFVAAISSSGGSTYYADSVKGRFTISRDNAKNTVYLQMNSLKPEDTAVYYCARVGFPGFYWGQGTQVTVSS”, the “polyreactivity (PSR sort gate)” value is reported as “high polyreactivity”. For “QVHLVESGGGLVQAGGSLRLSCAASGSTFRFYAMGWYRQAPGKERELVATISRTGSTNYADSVKGRFTISRDNAKNTVYLQMNSLKPEDTAVYYCAAQRRRYPGYVQDDYWGQGTQVTVSS”, the “polyreactivity (PSR sort gate)” value was “high polyreactivity”. With “QVHLVESGGGLVQAGGSLRLSCAASGSTFRSNAMGWYRQAPGKERELVASITSRGGSTYYADSVKGRFTISRDNAKNTVYLQMNSLKPEDTAVYYCATARSYLTYSYHYDYWGQGTQVTVSS” the “polyreactivity (PSR sort gate)” value was “low polyreactivity”. With “QVHLVESGGGLVQAGGSLRLSCAASGSTFSGNGMGWYRQAPGKERELVAAINWYGGTTYYADSVKGRFTISRDNAKNTVYLQMNSLKQEDTAVYYCARESTLTYYSDDFDYWGQGTQVTVSS” the “polyreactivity (PSR sort gate)” value was “low polyreactivity”. With “QVHLVESGGGLVQAGGSLRLSCAASGSTFVANTMRWSRQAPGKERELVASITSGDSTNYADSVKGRFTISRDNAKNTVYLQMNSLKPEDTAVYYCSAETVWYYVGGQLIYYSWGQGTQVTVSS” the “polyreactivity (PSR sort gate)” value was “low polyreactivity”. With “QVHLVESGGGLVQAGGSLRLSCAASGSTFYNNAMGWYRQAPGKERELVAAINYSGGSTNYADSVKGRFTISRDNAKNTVYLQMNILKPEDTAVYYCATDLHWLVTKYGYWGQGTQVTVSS” the “polyreactivity (PSR sort gate)” value was “low polyreactivity”. With “QVHLVESGGGLVQAGGSLRLSCAASGSTFYYTAMGWYRQPPGKESELVAAISRGGGSTYYADSVKGRFTISRDNAKNTVYVQMNSLKPEDTAVYYCAARRVGGGFYTWRNPAYEYWGQGTQVTVSS” the “polyreactivity (PSR sort gate)” value was “high polyreactivity”. With “QVHLVESGGGLVQAGGSLRLSCAASGSTIFLYMGWYRQAPGKERELVAAITVSGGSTYYADSVKGRFTISRDNAKNTVYLQMNSLKPEDTAVYYCNADWVLRYDYWGLGTQVTVSS” the “polyreactivity (PSR sort gate)” value was “low polyreactivity”. In the case of “QVHLVESGGGLVQAGGSLRLSCAASGSTLGRYAMGWYRQAPGKERELVAAISWRGGSTYYADSVKGRFTISRDNAKNTDYLQMHSLKPEDTAVYYCADTYRFSEYYYWGQGTQVTVSS”, the “polyreactivity (PSR sort gate)” value is reported as “high polyreactivity”. With “QVHLVESGGGLVQAGGSLRLSCAASGSTLSFYAMGWYRQAPGKERELVAAISYSTGTTYYADSVKGRFTISRDNAKNTVYLQMNSLKPEDSAVYYCAARWVWLHSRYDYWGQGTQVTVSS” the “polyreactivity (PSR sort gate)” value was “high polyreactivity”. For “QVHLVESGGGLVQAGGSLRLSCAASGSTLVTNAIGWYRQAPGKERELVAAITFSGGTTYYADSVKGRFTISRDNAKNTVYLQLNSLKPEDTAVYYCAAENWLEYVGYDFWGQGTHVTVSS”, the “polyreactivity (PSR sort gate)” value was “high polyreactivity”. In the case of “QVHLVESGGGLVQAGGSLRLSCAASGSTNYYAMGRYRQAPGKEREFVSAISRDASSTYYADSVKGRFTISRDNAKNTVYLQMNSLKPEDTAVYYCAARIIRFSTSADKLVTSRYYYWGQGTQVTVSS”, the “polyreactivity (PSR sort gate)” value is reported as “high polyreactivity”. In the case of “QVHLVESGGGLVQAGGSLRLSCAASVRTFYRNAMGWYRQAPGKERELVAAITRSGSTNYADSVKGRFTISRDNAKNTVYLQMNSLKPEDTAVYYCAAKFFRNTYSYGMDYWGQGTQVTVSS”, the “polyreactivity (PSR sort gate)” value is reported as “high polyreactivity”. For “QVHLVESGGGLVQAGGSLRLSCAATGRTFAGYAMGWYRQAPGKERQLVAAITNGGSTKYADSVKGRFTISRDNAKNSVYLQMNSLKPEDTAVYYCKARKRFYSGNTLMYYWGQGTQVTVSS”, the “polyreactivity (PSR sort gate)” value was “high polyreactivity”. In the case of “QVHLVESGGGLVQAGGSLRLSCAATGSTFPFYTMGWYRQAPGKERELVASISVKGDTTYYADSVKGRFTISRDNAKNTVYLQMNSLKPDDTAVYYCATGPYIWQEWSPGFEYWGQGTQVTVSS”, the “polyreactivity (PSR sort gate)” value is reported as “low polyreactivity”. For “QVHLVESGGGLVQAGGSLRLSCAAYGFIFYPYAMGWNRQEPGKERELVAAIDWNGGGTYYADSVKGRFTISRDNAKNTVYLQMNSLKPEDTAVYYCNTYGAYTFDYWGQGTQVTVSS”, the “polyreactivity (PSR sort gate)” value was “high polyreactivity”. In the case of “QVHLVESGGGLVQAGGSLRLSCADSGLTFVFYAMGWYRPAPGKERELVAAISWSTGRTYYPDSVKGRFTISRDTAKNTVYLQMNSLNPEDSAVYYCAASYLGRKYVYWGQGTQVTVSS”, the “polyreactivity (PSR sort gate)” value is reported as “high polyreactivity”. With “QVHLVESGGGLVQAGGSLRLSCADSGRIILDYAMGWYRQAPGKERELVAAITWGGGSTNYADSVKGRFTNSRDNAKNTVYLQMNRLKPEDTAVYYCNADPHDQYDYWGKGTQVTVSS” the “polyreactivity (PSR sort gate)” value was “low polyreactivity”. In the case of “QVHLVESGGGLVQAGGSLRLSCADSGSTFTSYAMGWYRQAPGKERDLVAAINYSGGSTYYADSVKGRFTISRDNAKNTVYLQMNSLKPEDTAVYYCAADGYIRQYVTYYYWGKGTQVTVSS”, the “polyreactivity (PSR sort gate)” value is reported as “low polyreactivity”. In the case of “QVHLVESGGGLVQAGGSLRLSCAPSGFTFGYNAMGWYRQAPGKERELVAAISYRDGSTYYADSVKGRFTISRDTAKNTVYLQMNSLKPEDTAVYYCAAEVWYPGWGYDYWGQGTQVTVSS”, the “polyreactivity (PSR sort gate)” value is reported as “high polyreactivity”. For “QVHLVESGGGLVQAGGSLRLSCASSGSIFRWYAMGWYRPAPGKERELVAAISTSGGNTYYADSVKGRFTISRDNAKNTVYLQMNSLKPEDTAVYYCNALWYRSLSYRYDYWGQGTQVTVSS”, the “polyreactivity (PSR sort gate)” value was “high polyreactivity”. In the case of “QVHLVESGGGLVQAGGSLRLSCASSGSTFGYYAMGWYRQAPGKERELVAAITGRGGSTYYADSVKGRFTISRDNAKNTVYLQLISLKQEDTAVYYCAVGKYRLYYSGAYGYWGQGTQVTVSS”, the “polyreactivity (PSR sort gate)” value is reported as “high polyreactivity”. In the case of “QVHLVESGGGLVQAGGSLRLSCASSGSTFRSYGMGWYRPAPGKERELVAAISSSGGSTYYADSVKGRFTISRDNAKNTVYLQMNSLKPEDSAVYYCAAGSRLVSARLYYWGQGTQVTVSS”, the “polyreactivity (PSR sort gate)” value is reported as “high polyreactivity”. With “QVHLVESGGGLVQAGGSLRLSCDASGRLIARYAMGWHRPAPGKERELVAAISSGGRTYYADSVKGRFTISRDNAKNTVYLQMNSLKPEDTAVYYCAASSGGATRGHDYWGQGTQVTVSS” the “polyreactivity (PSR sort gate)” value was “high polyreactivity”. For “QVHLVESGGGLVQAGGSLRLSCDASGSTFYCYAMGWYRQAPGKERELVASISWSGGRSYYADSVKGRFTISRDNAKNTDYLQMNSLYPEDTAVYYCAARRKGRYDYWGQGTQVTVSS”, the “polyreactivity (PSR sort gate)” value was “high polyreactivity”. With “QVHLVESGGGLVQAGGSLRLSCPASGSTIRNYAMGLYRQAPGKERELVAAITKRGGTTYYADSVKGRFTISRDNAKNTVYLQMNSLKPEDTAVYYCAIGYNSSPFDYWGQGTQVTVSS” the “polyreactivity (PSR sort gate)” value was “high polyreactivity”. With “QVHLVESGGGLVQAGGSLRLSCSASGIIFYVYTMGWYRQARGKERELVAAISGSGGSTTYADSVKGRFTISRDNAKNTVYLQMNSLKPEDTAVYYCNAKKWFYRWCKFSEFDYWGQGTQVTVSS” the “polyreactivity (PSR sort gate)” value was “high polyreactivity”. With “QVHLVESGGGLVQAGGSLRLSCSASGSIFAINVMGWYRQAPGKEREFVAAITWSGGSTYYADSVKGRVTISRDNAKNTVYLQMFSLKPEDTAVYYCNARYPYKRRDYDYWGQGTQVTVSS” the “polyreactivity (PSR sort gate)” value was “high polyreactivity”. For “QVHLVESGGGLVQAGGSLRLSCSASGSTFFPYAMGWYRQAPGKERELVAAITSGGRTKYADSVKGRFTISRDNAKNTVYLQMNSLKPEDNAVYYCAARGLIKEYGGPYRRFGYWGQGTKVTVSS”, the “polyreactivity (PSR sort gate)” value was “high polyreactivity”. With “QVHLVESGGGLVQAGGSLRLSFAASRSIFSKYVMGWYRQAPGKERELVASITSGGRTNYADSVKGRFTISRDNAKNTVYLQMNSLKPEDTAVYYCAARAFKTWYRSGVDYWGQGTQVTVSS” the “polyreactivity (PSR sort gate)” value was “low polyreactivity”. For “QVHLVESGGGLVQAGGSLRLSSAASGITFDDYAMGWYRQAPGKERELVAAISVSGGDTYYADSVKGRFTISRDNAKNTVYLQMNSLKPEVTAVYYCAAEVVSPRWYDYWGQGTQLTVSS”, the “polyreactivity (PSR sort gate)” value was “low polyreactivity”. For “QVHLVESGGGLVQAGGSLRLSSAASGSIFQYNAMGWYRQAPGKERELVAGITTGGDTNYADSVKGRFTISRDNAKNTVYLHMNSLKPEDTAVYYCAARFGQWVSAYDYWGQGTQVTVSS”, the “polyreactivity (PSR sort gate)” value was “low polyreactivity”. For “QVHLVESGGGLVQAGGSLRLTCAASGIIFLRYAIGWYRQAPGKERDLVAAITRGGITYYADSVKGRFTISRDNAKNTVYLQMNSLKPEDTAVYYCAATYSGNYSMCRGYDYWGQGTQVTVSS”, the “polyreactivity (PSR sort gate)” value was “low polyreactivity”. For “QVHLVESGGGLVQAGGSLRLTCAASGIIFRLYAMGWYRQAPGKEREFVARISKRGGSTYYADSVKGRFTISRDNSKNTVYLQMNSLKPEDTAVYYCAADAPLSYYHDYDYWGQGTQVTVSS”, the “polyreactivity (PSR sort gate)” value was “high polyreactivity”. In the case of “QVHLVESGGGLVQAGGSLRLTCAASGSIFLGHAMGWYRQAPGNERDLVAAISSITGRTYYADSVKGRFTISRDNAKNNVYLHMNSLKPEDTAVYYCNKVSRSFIVNTDDYWGQGTQVTVSS”, the “polyreactivity (PSR sort gate)” value is reported as “high polyreactivity”. In the case of “QVHLVESGGGLVQAGGSRRLSCAASGRISTLNALGWYRQAPGKVWEFVAAISWRGGSTYYADSVKGRFTISRDNAKNTVYVQMNSLKPEDTAVYYCAARPYTLAFYRFGYWGQGTKVTVSS”, the “polyreactivity (PSR sort gate)” value is reported as “high polyreactivity”. With “QVHLVESGGGLVQAGGSRRLSCAASGSIFRWYAMGWSRQAPGKERELVAAITRSGGRTYYADSVKGRFTISRDNAKNTVYLQMNSLKPEDTAVYYCAAVARTVPSYSYNYWGQGTQVTVSS” the “polyreactivity (PSR sort gate)” value was “high polyreactivity”. With “QVHLVESGGGLVQAGVSLRLSCAASGRTVVNAMGWYRQAPGKERELVAAISSNGGRTYYADSVKGRFTISRDNAKHSVYLQMNSLKPEDTAVYYCAAYNTHRYDYWGQGTQVTVSS” the “polyreactivity (PSR sort gate)” value was “high polyreactivity”. With “QVHLVESGGGLVQARGSLRLSCAASGSTIGYNTMVWYRQAPGKERELVAAITSGGRTYYADSVKGRFTISRDYAKNTVYLQMNSLKPEDSAVYYCAAYYWWGYPENEYWGQGTQVTVSS” the “polyreactivity (PSR sort gate)” value was “high polyreactivity”. With “QVHLVESGGGLVQGGGSLRLSCAASGGTIYYYAMGWYRQAPGKERELDAANRCSGGSTYYADSVKGRFTISRDIAKNTVSLQMNSLKPEDTAVYYCPSRGGNPKGYGYLAFNYWGQGTQVTVSS” the “polyreactivity (PSR sort gate)” value was “high polyreactivity”. In the case of “QVHLVESGGGLVQPGGSLRLSCAASGFPFYINAMGWYRQAPGTERELVAAITIGSTTYYADSVKGRCTISRDNAKNTVYLQMNSLKPEDTAVYYCAAEVWRDYTSRLYDYWGQGTQVTVSS”, the “polyreactivity (PSR sort gate)” value is reported as “low polyreactivity”. With “QVHLVESGGGLVQSGGSLRLTCAASGRTFSQYAMGWYRQAPWKERDLVAAISWSGGSTYYADSVKGRFTFSRDNAKNTVYLEMNSLKPEDTAVYYCAAVGKGSARSSYQVLYDYWGQGTQVNVSS” the “polyreactivity (PSR sort gate)” value was “low polyreactivity”. In the case of “QVHLVESGGRLVQAGGSLRLSCAASGSTFGYYAMVWYRHAPGKDRELVAAITSGASTYYADSVKGRFTISRDNAKKTVYLQMNSLKPEDTAVYYCAARRWRKYYSGYNYWGQGTQVTVSA”, the “polyreactivity (PSR sort gate)” value is reported as “high polyreactivity”.
